The target of assay [1] is GFP-tagged ADP-ribosylation-deficient NuMA, NuMA^PARmut construct (UniProt Q14980). The assay is described as follows: co-IP; GFP-trap magnetic beads on whole-cell extracts (NP-40 lysis buffer with BaseMuncher endonuclease and ADP-HPD) of cells transfected with GFP-NuMA and co-transfected with myc-TDP1, untreated or treated with 10 uM H2O2 for 10 min on ice in the dark; 2 h at 4°C; immunoblot; three biological replicates. Background: In western blotting, separated proteins are transferred to a membrane and probed.

Assay [2] has the same target. The assay is described as follows: co-IP; GFP-trap magnetic beads on the chromatin fraction of cells co-transfected with myc-TDP1 and treated with 10 uM H2O2 for 10 min on ice in the dark; immunoblot; three biological replicates.

Sequence of UniProt Q14980 (Q14980 other isoform, or with tags, fused parts or gaps, stated change not applied): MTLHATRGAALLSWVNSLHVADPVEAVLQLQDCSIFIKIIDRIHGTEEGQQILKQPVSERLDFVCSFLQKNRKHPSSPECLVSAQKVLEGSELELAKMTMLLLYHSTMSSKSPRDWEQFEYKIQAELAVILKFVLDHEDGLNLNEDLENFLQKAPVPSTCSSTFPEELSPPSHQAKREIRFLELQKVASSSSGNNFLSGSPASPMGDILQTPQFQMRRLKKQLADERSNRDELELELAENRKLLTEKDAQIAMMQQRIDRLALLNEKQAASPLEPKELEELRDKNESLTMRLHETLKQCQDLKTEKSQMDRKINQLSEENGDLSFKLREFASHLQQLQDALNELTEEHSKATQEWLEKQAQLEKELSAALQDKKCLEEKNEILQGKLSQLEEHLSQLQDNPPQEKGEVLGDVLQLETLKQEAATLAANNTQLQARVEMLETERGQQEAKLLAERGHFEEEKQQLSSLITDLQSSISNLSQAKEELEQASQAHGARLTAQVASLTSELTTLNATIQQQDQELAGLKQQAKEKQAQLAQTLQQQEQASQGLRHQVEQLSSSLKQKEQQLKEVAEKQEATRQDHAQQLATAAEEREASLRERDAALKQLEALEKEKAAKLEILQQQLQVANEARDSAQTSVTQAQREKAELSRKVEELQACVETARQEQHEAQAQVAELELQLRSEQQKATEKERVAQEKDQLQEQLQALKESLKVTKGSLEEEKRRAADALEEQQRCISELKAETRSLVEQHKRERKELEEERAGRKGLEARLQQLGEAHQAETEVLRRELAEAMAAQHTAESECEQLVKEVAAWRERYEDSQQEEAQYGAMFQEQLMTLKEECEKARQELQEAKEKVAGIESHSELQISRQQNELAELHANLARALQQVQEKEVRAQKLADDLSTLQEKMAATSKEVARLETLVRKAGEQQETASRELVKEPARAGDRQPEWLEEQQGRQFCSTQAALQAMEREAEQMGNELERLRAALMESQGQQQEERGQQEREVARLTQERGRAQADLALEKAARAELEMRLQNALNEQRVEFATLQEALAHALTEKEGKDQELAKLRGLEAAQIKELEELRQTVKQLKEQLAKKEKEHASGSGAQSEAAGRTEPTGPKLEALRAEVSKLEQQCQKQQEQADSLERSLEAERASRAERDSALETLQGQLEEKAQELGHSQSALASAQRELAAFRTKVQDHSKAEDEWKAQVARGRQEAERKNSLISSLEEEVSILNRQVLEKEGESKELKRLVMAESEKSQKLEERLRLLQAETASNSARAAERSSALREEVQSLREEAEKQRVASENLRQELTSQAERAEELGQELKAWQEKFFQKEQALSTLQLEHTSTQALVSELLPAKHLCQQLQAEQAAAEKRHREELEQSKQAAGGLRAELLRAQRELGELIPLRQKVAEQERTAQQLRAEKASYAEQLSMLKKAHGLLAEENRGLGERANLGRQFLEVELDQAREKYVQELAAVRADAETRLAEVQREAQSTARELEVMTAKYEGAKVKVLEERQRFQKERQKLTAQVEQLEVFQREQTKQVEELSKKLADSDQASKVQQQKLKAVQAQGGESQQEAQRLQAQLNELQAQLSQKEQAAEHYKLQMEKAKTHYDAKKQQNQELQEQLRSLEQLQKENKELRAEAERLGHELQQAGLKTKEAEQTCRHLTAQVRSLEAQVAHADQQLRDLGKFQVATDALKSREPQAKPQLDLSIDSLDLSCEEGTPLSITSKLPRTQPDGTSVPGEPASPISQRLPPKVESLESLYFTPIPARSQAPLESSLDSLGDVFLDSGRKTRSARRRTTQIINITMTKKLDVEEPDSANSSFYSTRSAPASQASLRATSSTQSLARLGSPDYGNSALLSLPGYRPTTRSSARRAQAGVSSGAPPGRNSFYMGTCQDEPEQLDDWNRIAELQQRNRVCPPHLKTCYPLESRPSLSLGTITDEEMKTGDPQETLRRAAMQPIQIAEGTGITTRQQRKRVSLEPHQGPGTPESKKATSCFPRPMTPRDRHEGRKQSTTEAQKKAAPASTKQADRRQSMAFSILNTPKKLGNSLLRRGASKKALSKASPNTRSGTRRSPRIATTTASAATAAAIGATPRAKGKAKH

In assay [1], “myc-TDP1 (tyrosyl DNA phosphodiesterase 1) (from UniProt Q9NUW8 1-608) (enzyme)” yielded a percent decrease in interaction relative to NuMA^WT (H2O2-treated cells) of 38 to 45% and a percent decrease in interaction relative to NuMA^WT (untreated cells) of 38 to 45%. Besides, the percent lower interaction than with NuMA^WT (chromatin fraction, H2O2-treated cells) in assay [2] was 50%.

Source of the values: publication PMC12187637.
